Consider 139 substances from the supplement of paper PMC12042874.

The data set in a line: amyloid nucleation score (Sup35N fusion, yeast selection) (log enrichment); library NNK1; higher = more nucleation; inactive = no reads after selection. The method in brief: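 Output and input plasmid inserts were sequenced by Illumina after psi-negative yeast carrying Sup35N fused to peptides of 20 random codons had been induced 24 hours with 100 μM copper sulfate and grown 7 days at 30°C on medium lacking adenine and uracil. The nucleation score is the DiMSum log enrichment of output over input reads, centred on the mode score of non-aggregating sequences. Sequences with under 100 input reads were excluded.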

± gives the uncertainty stated by the source.

LDRVSWSDRKSNGQ yielded an amyloid nucleation score of 1.44 ± 0.41. On to SRNNCSNRRDYHGIYSMRIS, for which the amyloid nucleation score is 0.513 ± 0.79. As for ATLGDSEEYRLAFGLPLYCR, the entry is “inactive”. As for NTAFLAVLSNALMVGMYSLL, the figure is 0.606 ± 0.58; as for VRCNGDLQDKYRISFCNKSR, 0.01 ± 1.2. As for YREGHHPGWTMVKMMRTQVP, the figure is 0.26 ± 0.6; as for CVVRVWVYRGGKYVYLEKAP, -1.48 ± 1.4; as for VLVLNLSLPKSLSNPSMRFG, 8.028 ± 0.046.

Substance FSVYVGVILCVSATVDVWAC had an amyloid nucleation score of 1.87 ± 0.23. For ATLVTV the value was 0.759 ± 0.67; for LYMVWCACSFWDYITVFIFM, 0.041 ± 0.65.

For YYDYGEYIIKGVLPWIRGFY, the amyloid nucleation score was 0.513 ± 0.31. As for LSVGKKDS, the figure is -0.292 ± 0.23; as for EVIVYKTFEDVSQRVRHNWN, 1.89 ± 0.22. RKDVLEGADSMTMVRRSSLF registered an amyloid nucleation score of -0.286 ± 0.35. For EPSGLLFSTLGTSTYGYIQF the value was 2.27 ± 0.11; for ESLREVTLYATKSLWMNLRL, -1.83 ± 1.1. Consider FLEFAYVVFKILEKNGGLSY, for which the amyloid nucleation score is -1.56 ± 0.86. For MFTWEL the value was 0.436 ± 1.2; for DVWKAGSVGPRQLVRRGGRR, 0.259 ± 0.81; for DCGRWNRKRPNSVLGVYL, 1.48 ± 0.88. For GCYSQNICCVTCIKRRSIVS the value was -1.02 ± 0.69; for QSVWEYNGTFSLRYRDMTGY, 0.477 ± 0.65. As for GKPDKVHARGWFTLVNRWLR, the figure is 0.399 ± 0.73. As to LKIKGGWVFVTSIW, the amyloid nucleation score is -0.008 ± 0.35. For GAVIVCVYMQALVVIDRASA the value was -0.62 ± 0.94; for FRRMVTVNEAWHHRKAGSAN, 1.47 ± 0.65.

As for CSWAASY, the amyloid nucleation score was -0.689 ± 1.9. As for EHLVHLYKFSSAFERVGW, the figure is -0.352 ± 0.7; as for CFFYDCGWTCPLKNIGSYTF, 0.07 ± 0.51; as for FVSVAQVEE, -1.2 ± 1. As for VMFVPLQSVYSAP, the figure is -0.766 ± 2.4; as for EKSCATRLA, 0.374 ± 0.29.

Substance SLVYQYIVLCTV returned an amyloid nucleation score of -1.47 ± 1.2. For KWQEQGVIFSNFLLHRHWDV the value was -1.23 ± 1.6. As for IRGNVKETVIFFKTRFAFCW, the figure is 0.147 ± 0.73.

For GCGMDGWDVQ, the amyloid nucleation score amounted to 0.103 ± 0.25. As for AERPSLYWLKLRKRRITVV, the figure is 0.46 ± 1.2; as for QMYYFRCGQFTQGGNTQWLW, 0.632 ± 0.39.

Substance YWARRYLWAGFFI registered an amyloid nucleation score of -0.322 ± 1.1. Consider PCTRHCLRLHLAFMWLILAI, for which the amyloid nucleation score is -0.31 ± 0.4. FYFRNSSGF displayed an amyloid nucleation score of 2.49 ± 0.58. As for TGLSSYM, the figure is -0.701 ± 0.97; as for PVNLGSDVYYNVRSQCGSMY, -0.218 ± 0.23; as for GRPLCSRPMILHMHNITLRM, 1.05 ± 0.97.

QYHLWFMCAAVDRMKNGPFG gave an amyloid nucleation score of 0.049 ± 0.36. As for TKCIINEIVDDG, the figure is -1.35 ± 2.4. As for ILICKLHRRVIRGWNFRSDR, the figure is 0.086 ± 0.48; as for SGGNLFRVMRWSMHFVSVRL, -0.355 ± 0.33. For FKVVF the value was -0.909 ± 1.9; for LVMRRKYLVNSNTLCSFGLH, “inactive”; for IPKVIGWFTVVTTGVVVDIS, 1.27 ± 0.7.

SSLGIGFAPLISSFISC had an amyloid nucleation score of -0.429 ± 0.64.

With FSYLSFCPVVSFESTFPTPM, the amyloid nucleation score came out at 5.29 ± 0.066. Substance WPGLFMIY came in with an amyloid nucleation score of 0.016 ± 0.49.

Regarding QRSLLDDRYNAICSSNTNVE, the amyloid nucleation score was 0.184 ± 0.35. As for MHYRGKFLHDHWHESH, the figure is -0.485 ± 1.1; as for PRSDNSFSVQVEFVDICEVK, -0.437 ± 0.56. As for MSRCLIDSIEIFHWTGGRYA, the figure is -0.386 ± 1.2. As for RDIYRVYNV, the figure is -1.05 ± 0.72; as for GAFWGFFFKCLSTTLNNSWL, “inactive”. For HCMGGNLFLF, the amyloid nucleation score is -0.463 ± 0.47. As for AKLAS, the figure is 0.151 ± 0.59; as for FNGGNTFVCVSLDTCWNGWY, 7.54 ± 0.085. For LVHMIAYAVGNLMCIRPLLI the value was -0.467 ± 0.43. The substance VNYSNWFSMADSFRSRSFSV registered an amyloid nucleation score of -0.104 ± 1.1. With MFMSWVDFNLD, the amyloid nucleation score turned out to be 0.066 ± 0.29.

For SEGKHNCKLT, the amyloid nucleation score was -0.635 ± 0.95. For DMPFSDFMN the value was -0.096 ± 0.47; for KKRPPAPSMEVRLGARMVAG, 0.324 ± 1. TDCQRYI returned an amyloid nucleation score of 1.6 ± 0.54.

For KRIVCMFSWPSLT, the amyloid nucleation score is -0.921 ± 0.88.

For KAFNVFER, the amyloid nucleation score is 0.225 ± 0.53. As for ASAVIWGERAKLRKYLIPTR, the figure is 0.94 ± 0.7; as for DSTDSVESEWNTVRSYVSLW, “inactive”.

As for HIVNCVKML, the amyloid nucleation score came to 0.788 ± 0.63. For the substance IRSLLYYLFGFLMFWVIRIW, the amyloid nucleation score was 0.226 ± 0.66. For KKPQSGSCTRLSSESYKSVY the value was 0.464 ± 0.82; for QHWNGTNNMILYYFPRPSAR, 5.25 ± 0.065; for FICRFDVHWHSGMFSLYPWC, 0.682 ± 0.47. As for SSMMLDYCRSYCANISTKCQ, the figure is 0.675 ± 0.24. For NLRQHVYICYNLNGRTHFLW the value was 6.719 ± 0.047.

Take YHSSYVK: the amyloid nucleation score is -1.36 ± 2.7.

For SDVYRGVVIVGHMIAKHMLV, the amyloid nucleation score came to 0.494 ± 0.55. TDSILKRYGMSFDFWRSWRN returned an amyloid nucleation score of 0.76 ± 0.23.

Substance DDRLLCI returned an amyloid nucleation score of -1.85 ± 2.1. For FYARMLYYA the value was “inactive”.

In turn, MFAVMNGAVLSTPLDNVCRV returned an amyloid nucleation score of -0.581 ± 1.6.

Take GLSQKVGKPAAALLRTMVSD: the amyloid nucleation score was -0.309 ± 0.27. For WWLLSLP the value was 0.196 ± 0.26; for LDTRSRSYVWSDLLRKAKAK, 0.795 ± 0.6. The substance TLCIVNIGSFVEDEKGDN showed an amyloid nucleation score of 7.19 ± 0.073.

Regarding PFLAKVLCNVWNI, the amyloid nucleation score is 6.8 ± 0.047.

In turn, LWCITYH registered an amyloid nucleation score of 4.14 ± 0.1.

For LAGMTSKHFTLRMMSHLDSY, the amyloid nucleation score stood at 0.043 ± 1. For SSSFGHYDTWLYSSLFQGLT the value was 3.46 ± 0.14.

YSHDSSSTIFRNETPLSTPM: the amyloid nucleation score result was “inactive”. As for LPVFELSHTHSVKSLDGNGQ, the figure is -0.308 ± 0.33; as for KTFTNGLCDPDVYGTIWAM, 0.488 ± 0.36; as for NNTFQIVLRFSGRHIDFNRR, 7.639 ± 0.064. As for FYQLYLINSTCHGRSRYILS, the figure is 0.155 ± 0.51; as for VDISEGCVSPVCFLMPCLMH, -0.238 ± 0.29; as for AWRSFIGYRMRVWIGYRGCY, 0.186 ± 0.95. RCVSAFLLLFSMHRHG: the amyloid nucleation score worked out at 1.28 ± 0.36. For ENQFTVLSNGFDVIALFSFE the value was 1.07 ± 0.93.

The substance YFYIPFNEMNRWTYCCIRWW showed an amyloid nucleation score of -0.04 ± 0.36.

On to GHFRSASRKYALTV, for which the amyloid nucleation score was -0.619 ± 0.51. As for FYYVRLDARMVDSSSFV, the figure is -0.542 ± 0.28.

Turning to NGSLLWYVCSSWNVMHDGSV, the amyloid nucleation score is -1 ± 1.3. The substance LWGFSISYRKFVVSYGKAP registered an amyloid nucleation score of 0.279 ± 0.31.

Substance LIVMVKV had an amyloid nucleation score of 0.111 ± 0.33.

Regarding ILHLLRFNDIAFVKRLSAVL, the amyloid nucleation score is -0.067 ± 0.17. For YFLICSLWPYVLPYCVCRFV the value was -0.728 ± 0.5; for NNVLCSGKMGRLCVGCIMPC, -0.507 ± 1.5. For FPSNPYPNLPNMDVKRSNAF the value was “inactive”.

The substance AWSRLSVNPVVEENVMAIAL came in with an amyloid nucleation score of 0.909 ± 0.69. For DGLLTGLQDRPNSSRFKYVM the value was 0.421 ± 0.33; for GYGNRNLALARGMLGQIL, 0.215 ± 0.46; for HLRNLKDFNVQPF, 0.635 ± 1.2. For MSSPMRRDAKL the value was 2.67 ± 0.14; for QDGLGLTDAVRRTGFVGRTH, 0.197 ± 0.86; for MAPLTMTSDLSHISKTGIWG, 1.38 ± 0.9. NNRNQAMKVYNLVSLIEAKR yielded an amyloid nucleation score of -0.218 ± 1.

As to LFLFLRMLTFVTCLIMRLRV, the amyloid nucleation score is -1.73 ± 2.4. As for LEAMPMCGEELRSLYTMVNV, the figure is 0.552 ± 0.42; as for LRFPLARNHTGYQTGVTEFT, -0.526 ± 0.32; as for RDHTIRPLWIAGSHMQFLNR, 0.477 ± 0.34. As for KSSGALDMFSDTNMV, the figure is -0.894 ± 0.39. As for KVLNILYWGRTDVG, the figure is 1.41 ± 0.33; as for RLCPENLRTNFKCVLNFMVT, 4.81 ± 0.12.

The substance LSGPCNFYQHSVSWCLCTYA had an amyloid nucleation score of 0.764 ± 0.88. YVWDAHIINVYLS gave an amyloid nucleation score of 6.51 ± 0.081.

Turning to ISRVIFLR, the amyloid nucleation score is 1.41 ± 0.78. As for DLSFLRNCSLYSLLGVIG, the entry is “inactive”. In turn, CVPSVRNSVMW gave an amyloid nucleation score of -0.181 ± 0.88. For CVRFDSVNCHHLF the value was 0.238 ± 0.24. In the case of GKSWFGYCVSLVCMSWVLSD, the amyloid nucleation score was 0.67 ± 1.2. As for FSSSWELVRLYTASCKHDSK, the figure is 0.782 ± 0.2. For TRDTLIWFGRFGSMTDWCSW the value was 0.192 ± 0.63.
